Experimental data reported in patent EP4755449A2 (CHUGAI SEIYAKU KABUSHIKI KAISHA, dated 2026).

B1: Ab003 (M103205H009/M103202L000) (antibody, V domains shown)
VH: QVTLKESGPVLVKPTETLTLTCTVSGIDLSSYDISWVRQAPGKGLEWVGIISHAGSTYYASWAKGRLTISKDTSKNQVVLTMTNMDPVDTATYYCARGVPAYSTGGDLWGQGTLVTVSS
VL: DIVMTQSPATLSLSPGERATLSCQSSQSVYDNNWLSWFQQKPGQPPKLLIYWASTLASGVPSRFSGSGSGTDFTLTISSLQPEDAATYYCAGGYGGGLYAFGQGTKVEIKR
notes: variant of MS1032LO00-SG1
B2: MS_M103240H1246-SG1/M103202L1045-SK1 (antibody, human IgG1, kappa, V domains shown)
VH: QVQLVESGGGLVQPGGSLRLSCAVSGIDLSHEDISWVRQAPGKGLEWVSIISYAGSKYYASWAKGRLTISKDTSKNQVVLTMTNMDPVDTATYYCARGVPAYSHGGDLWGQGTLVTVSS
VL: DIVMTQSPATLSLSPGERATLSCTTSQSVYHENWLSWFQQKPGQPPKLLIYWASTLAYGVPSRFSGSGSGTDFTLTISSLQPEDAATYYCAGGYGGGRYAFGQGTKVEIKR
notes: also called MS1032LO25-SG1
B3: Ab004 (M103205H026/M103202L000) (antibody, V domains shown)
VH: QVTLKESGPVLVKPTETLTLTCTVSGIDLSSYDISWVRQAPGKGLEWVGIISYAGSTYYASWAKGRLTISKDTSKNQVVLTMTNMDPVDTATYYCARGVPAHSTGGDLWGQGTLVTVSS
VL: DIVMTQSPATLSLSPGERATLSCQSSQSVYDNNWLSWFQQKPGQPPKLLIYWASTLASGVPSRFSGSGSGTDFTLTISSLQPEDAATYYCAGGYGGGLYAFGQGTKVEIKR
notes: variant of MS1032LO00-SG1
B4: MS_M103205H795-SG1/M103202L889-SK1 (antibody, human IgG1, kappa)
heavy: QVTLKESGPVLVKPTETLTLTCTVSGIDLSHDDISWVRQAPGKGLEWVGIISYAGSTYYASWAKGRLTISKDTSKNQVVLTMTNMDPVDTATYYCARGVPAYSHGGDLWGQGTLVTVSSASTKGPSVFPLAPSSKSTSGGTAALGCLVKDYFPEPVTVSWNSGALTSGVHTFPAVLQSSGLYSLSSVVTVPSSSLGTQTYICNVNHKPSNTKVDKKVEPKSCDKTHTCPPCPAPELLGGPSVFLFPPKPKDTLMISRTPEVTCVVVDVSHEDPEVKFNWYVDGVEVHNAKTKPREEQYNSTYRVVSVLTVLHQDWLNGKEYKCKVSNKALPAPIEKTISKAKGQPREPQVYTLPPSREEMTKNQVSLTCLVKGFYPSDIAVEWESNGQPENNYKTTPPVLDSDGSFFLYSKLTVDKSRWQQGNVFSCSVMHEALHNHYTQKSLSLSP
light: DIVMTQSPATLSLSPGERATLSCTSSQSVYHANWLSWFQQKPGQPPKLLIYWASTLAYGVPSRFSGSGSGTDFTLTISSLQPEDAATYYCAGGYGGGRYAFGQGTKVEIKRTVAAPSVFIFPPSDEQLKSGTASVVCLLNNFYPREAKVQWKVDNALQSGNSQESVTEQDSKDSTYSLSSTLTLSKADYEKHKVYACEVTHQGLSSPVTKSFNRGEC
notes: also called MS1032LO06-SG1
B5: MS_M103240H795-SG1/M103202L1045-SK1 (antibody, human IgG1, kappa)
heavy: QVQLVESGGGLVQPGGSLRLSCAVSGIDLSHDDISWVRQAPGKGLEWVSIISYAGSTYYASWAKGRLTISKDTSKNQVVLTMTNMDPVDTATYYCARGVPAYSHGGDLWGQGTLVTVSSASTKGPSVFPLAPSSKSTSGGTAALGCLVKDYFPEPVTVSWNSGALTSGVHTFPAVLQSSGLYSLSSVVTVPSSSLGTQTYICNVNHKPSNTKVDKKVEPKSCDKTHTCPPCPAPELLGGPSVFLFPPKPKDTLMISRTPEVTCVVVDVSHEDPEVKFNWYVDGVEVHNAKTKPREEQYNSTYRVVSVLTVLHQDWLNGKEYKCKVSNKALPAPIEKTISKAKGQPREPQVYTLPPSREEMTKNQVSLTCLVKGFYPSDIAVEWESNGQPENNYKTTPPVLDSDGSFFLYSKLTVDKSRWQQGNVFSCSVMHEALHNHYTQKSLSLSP
light: DIVMTQSPATLSLSPGERATLSCTTSQSVYHENWLSWFQQKPGQPPKLLIYWASTLAYGVPSRFSGSGSGTDFTLTISSLQPEDAATYYCAGGYGGGRYAFGQGTKVEIKRTVAAPSVFIFPPSDEQLKSGTASVVCLLNNFYPREAKVQWKVDNALQSGNSQESVTEQDSKDSTYSLSSTLTLSKADYEKHKVYACEVTHQGLSSPVTKSFNRGEC
notes: also called MS1032LO19-SG1
B6: MS_M103205H795-SG1/M103202L1060-SK1 (antibody, human IgG1, kappa, V domains shown)
VH: QVTLKESGPVLVKPTETLTLTCTVSGIDLSHDDISWVRQAPGKGLEWVGIISYAGSTYYASWAKGRLTISKDTSKNQVVLTMTNMDPVDTATYYCARGVPAYSHGGDLWGQGTLVTVSS
VL: DIVMTQSPATLSLSPGERATLSCTSSQSVFHENWLSWFQQKPGQPPKLLIYWASTLAWGVPSRFSGSGSGTDFTLTISSLQPEDAATYYCAGGYGGGRYAFGQGTKVEIKR
notes: also called MS1032LO24-SG1
B7: MS_M103245H1233-SG1/M103202L1045-SK1 (antibody, human IgG1, kappa, V domains shown)
VH: QVTLKESGPVLVKPTETLTLTCKVSGIDLSHEDISWVRQAPGKGLEWVSIISYAGSTYYASWAKGRLTISKDTSKNQVVLTMTNMDPVDTATYYCARGVPAYSHGGDLWGQGTLVTVSS
VL: DIVMTQSPATLSLSPGERATLSCTTSQSVYHENWLSWFQQKPGQPPKLLIYWASTLAYGVPSRFSGSGSGTDFTLTISSLQPEDAATYYCAGGYGGGRYAFGQGTKVEIKR
notes: also called MS1032LO23-SG1
B8: MS_M103205H1047-SG1/M103202L889-SK1 (antibody, human IgG1, kappa, V domains shown)
VH: QVTLKESGPVLVKPTETLTLTCTVSGIDLSHTDISWVRQAPGKGLEWVGIISYAGKKYYASWAKGRLTISKDTSKNQVVLTMTNMDPVDTATYYCARGVPAYSHGGDLWGQGTLVTVSS
VL: DIVMTQSPATLSLSPGERATLSCTSSQSVYHANWLSWFQQKPGQPPKLLIYWASTLAYGVPSRFSGSGSGTDFTLTISSLQPEDAATYYCAGGYGGGRYAFGQGTKVEIKR
notes: also called MS1032LO11-SG1
B9: MS_M103205H1046-SG1/M103202L889-SK1 (antibody, human IgG1, kappa, V domains shown)
VH: QVTLKESGPVLVKPTETLTLTCTVSGIDLSHTDISWVRQAPGKGLEWVGIISYAGKTYYASWAKKRLTISKDTSKNQVVLTMTNMDPVDTATYYCARGVPAYSHGGDLWGQGTLVTVSS
VL: DIVMTQSPATLSLSPGERATLSCTSSQSVYHANWLSWFQQKPGQPPKLLIYWASTLAYGVPSRFSGSGSGTDFTLTISSLQPEDAATYYCAGGYGGGRYAFGQGTKVEIKR
notes: also called MS1032LO10-SG1
B10: MS_M103245H795-SG1/M103202L1045-SK1 (antibody, human IgG1, kappa, V domains shown)
VH: QVTLKESGPVLVKPTETLTLTCKVSGIDLSHDDISWVRQAPGKGLEWVSIISYAGSTYYASWAKGRLTISKDTSKNQVVLTMTNMDPVDTATYYCARGVPAYSHGGDLWGQGTLVTVSS
VL: DIVMTQSPATLSLSPGERATLSCTTSQSVYHENWLSWFQQKPGQPPKLLIYWASTLAYGVPSRFSGSGSGTDFTLTISSLQPEDAATYYCAGGYGGGRYAFGQGTKVEIKR
notes: also called MS1032LO21-SG1
B11: MS_M103205H1057-SG1/M103202L889-SK1 (antibody, human IgG1, kappa, V domains shown)
VH: QVTLKESGPVLVKPTETLTLTCTVSGIDLSHTDISWVRQAPGKGLEWVGIISYAGSKYKASWAKGRLTISKDTSKNQVVLTMTNMDPVDTATYYCARGVPAYSHGGDLWGQGTLVTVSS
VL: DIVMTQSPATLSLSPGERATLSCTSSQSVYHANWLSWFQQKPGQPPKLLIYWASTLAYGVPSRFSGSGSGTDFTLTISSLQPEDAATYYCAGGYGGGRYAFGQGTKVEIKR
notes: also called MS1032LO12-SG1
B12: MS_M103205H1004-SG1/M103202L889-SK1 (antibody, human IgG1, kappa, V domains shown)
VH: QVTLKESGPVLVKPTETLTLTCTVSGIDLSHDDISWVRQAPGKGLEWVGIISYAGSMYYASWAKGRLTISKDTSKNQVVLTMTNMDPVDTATYYCARGVPAYSHGGDKWGQGTLVTVSS
VL: DIVMTQSPATLSLSPGERATLSCTSSQSVYHANWLSWFQQKPGQPPKLLIYWASTLAYGVPSRFSGSGSGTDFTLTISSLQPEDAATYYCAGGYGGGRYAFGQGTKVEIKR
notes: also called MS1032LO07-SG1

Legend:
human latent myostatin [1] = biological target: T1, human latent myostatin (human, UniProt O14793 25-266; O14793 267-375); assay: SPR, dissociation phase at pH5.8
T1 construct: non-covalent complex of two propeptides and the mature homodimer; also called human myostatin latent form
T1 sequence 1: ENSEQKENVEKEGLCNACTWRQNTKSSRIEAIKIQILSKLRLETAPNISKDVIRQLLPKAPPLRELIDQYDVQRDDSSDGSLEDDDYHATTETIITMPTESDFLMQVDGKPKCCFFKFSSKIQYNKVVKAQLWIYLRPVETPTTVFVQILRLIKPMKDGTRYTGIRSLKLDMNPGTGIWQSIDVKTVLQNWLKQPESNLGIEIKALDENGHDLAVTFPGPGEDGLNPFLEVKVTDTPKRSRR
T1 sequence 2: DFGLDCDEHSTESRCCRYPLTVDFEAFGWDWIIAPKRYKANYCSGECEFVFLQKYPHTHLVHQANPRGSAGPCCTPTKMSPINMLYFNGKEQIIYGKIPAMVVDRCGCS

human latent myostatin [2] = biological target: T1, human latent myostatin; assay: SPR 37C
mouse latent myostatin [3] = biological target: T2, mouse latent myostatin (mouse, UniProt O08689 26-267; O08689 268-376); assay: SPR 37C
T2 sequence 1: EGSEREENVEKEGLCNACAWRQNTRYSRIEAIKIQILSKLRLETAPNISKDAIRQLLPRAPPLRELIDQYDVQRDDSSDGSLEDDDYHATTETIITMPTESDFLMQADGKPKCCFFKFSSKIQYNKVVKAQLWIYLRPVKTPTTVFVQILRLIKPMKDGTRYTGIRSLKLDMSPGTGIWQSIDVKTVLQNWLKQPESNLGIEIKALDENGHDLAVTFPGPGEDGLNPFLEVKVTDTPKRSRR
T2 sequence 2: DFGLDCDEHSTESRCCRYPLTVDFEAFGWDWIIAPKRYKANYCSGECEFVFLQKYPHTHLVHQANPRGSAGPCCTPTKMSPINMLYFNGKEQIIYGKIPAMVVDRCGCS

[4] = biological target: T3, cynomolgus monkey latent myostatin (cynomolgus monkey, UniProt Q95J86 25-266; Q95J86 267-375, limits assumed); assay: SPR 37C
T3 construct: also called cyno latent myostatin
T3 sequence 1: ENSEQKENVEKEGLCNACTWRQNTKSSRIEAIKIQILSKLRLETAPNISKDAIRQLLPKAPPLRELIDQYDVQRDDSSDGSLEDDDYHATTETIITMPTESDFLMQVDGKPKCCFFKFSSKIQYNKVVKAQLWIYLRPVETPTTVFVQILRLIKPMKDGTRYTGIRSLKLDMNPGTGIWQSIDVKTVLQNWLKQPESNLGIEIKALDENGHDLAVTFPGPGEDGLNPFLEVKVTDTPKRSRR
T3 sequence 2: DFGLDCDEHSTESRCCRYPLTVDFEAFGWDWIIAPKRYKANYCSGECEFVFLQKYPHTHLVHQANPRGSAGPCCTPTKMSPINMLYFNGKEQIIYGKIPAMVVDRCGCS

human latent myostatin [5] = biological target: T1, human latent myostatin; assay: SPR 37C pH5.8; pH 5.8
mouse latent myostatin [6] = biological target: T2, mouse latent myostatin; assay: SPR 37C pH5.8; pH 5.8
[7] = biological target: T3, cynomolgus monkey latent myostatin; assay: SPR 37C pH5.8; pH 5.8
human latent myostatin [8] = biological target: T1, human latent myostatin; assay: SPR 37C pH7.4; pH 7.4
mouse latent myostatin [9] = biological target: T2, mouse latent myostatin; assay: SPR 37C pH7.4; pH 7.4
[10] = biological target: T3, cynomolgus monkey latent myostatin; assay: SPR 37C pH7.4; pH 7.4

Binder | koff (human latent myostatin [1]) | ratio of KD at pH 5.8/pH7.4 (human latent myostatin [2]) | ratio of KD at pH 5.8/pH7.4 (mouse latent myostatin [3]) | ratio of KD at pH 5.8/pH7.4 [4] | Kd (human latent myostatin [5]) | Kd (mouse latent myostatin [6]) | Kd [7] | Kd (human latent myostatin [8]) | Kd (mouse latent myostatin [9]) | Kd [10]
B1 | 0.00088 s⁻¹ |  |  |  |  |  |  |  |  | 
B2 |  | 92 | 38 | 41 | 25.5 nM | 9.88 nM | 14.1 nM | 0.276 nM | 0.259 nM | 0.34 nM
B3 | 0.000186 s⁻¹ |  |  |  |  |  |  |  |  | 
B4 |  | 119 | 76 | 76 | 34 nM | 22.6 nM | 25.9 nM | 0.285 nM | 0.299 nM | 0.343 nM
B5 |  | 168 | 106 | 109 | 45.8 nM | 28.7 nM | 35.6 nM | 0.273 nM | 0.271 nM | 0.326 nM
B6 |  | 9 | 6 | 5 | 1.52 nM | 1.02 nM | 0.929 nM | 0.164 nM | 0.176 nM | 0.189 nM
B7 |  | 62 | 24 | 26 | 16.1 nM | 6.4 nM | 7.71 nM | 0.26 nM | 0.266 nM | 0.299 nM
B8 |  | 341 | 81 | 87 | 143 nM | 29.2 nM | 43.5 nM | 0.419 nM | 0.362 nM | 0.502 nM
B9 |  | 125 | 35 | 38 | 43.8 nM | 10.9 nM | 16.1 nM | 0.351 nM | 0.314 nM | 0.419 nM
B10 |  | 204 | 113 | 100 | 52.3 nM | 29.4 nM | 31 nM | 0.257 nM | 0.261 nM | 0.309 nM
B11 |  | 209 | 60 | 73 | 84.9 nM | 24.8 nM | 35.8 nM | 0.407 nM | 0.413 nM | 0.492 nM
B12 |  | 168 | 97 | 102 | 46.2 nM | 30.8 nM | 34.7 nM | 0.275 nM | 0.319 nM | 0.339 nM
